Reference: patent US20040175786A1

What follows are substances tested against human CD3 (TCR/CD3 complex) on T-cells (human) (UniProt P07766) (assay: cell-based or functional assay).
With “scOKT3-γ?IgM, WT Pentamers/hexamers (from UniProt P01871 218-435) (Fc fusion)” the IL-2 production was 42 pg/mL, the INF-γ-production was 232 pg/mL and the T-cell proliferation, immobilized Ak [cpm × 10^3] was 3500 cpm. It also gave a T-cell proliferation, soluble Ak [cpm × 10^3] of 2100 cpm and a TNF-α-production of 158 pg/mL. “scOKT3-γ?IgM, WT (from UniProt P01871 218-435) (Fc fusion)” was tested, and the IL-2 production was 47 pg/mL, the INF-γ-production was 244 pg/mL and the T-cell proliferation, immobilized Ak [cpm × 10^3] was 4600 cpm. The T-cell proliferation, soluble Ak [cpm × 10^3] was 2600 cpm and the TNF-α-production was 167 pg/mL. “scOKT3-γ?IgM, WT Monomers (from UniProt P01871 218-435) (Fc fusion)” was tested, and the IL-2 production was 52 pg/mL, the INF-γ-production was 222 pg/mL and the T-cell proliferation, immobilized Ak [cpm × 10^3] was 4000 cpm. For the same substance, the T-cell proliferation, soluble Ak [cpm × 10^3] was 1800 cpm and the TNF-α-production was 166 pg/mL. “scOKT3-γ?IgM, C575S (from UniProt P01871 218-435) (Fc fusion)” gave an IL-2 production of 65 pg/mL, an INF-γ-production of 202 pg/mL and a T-cell proliferation, immobilized Ak [cpm × 10^3] of 3300 cpm. It also gave a T-cell proliferation, soluble Ak [cpm × 10^3] of 1900 cpm and a TNF-α-production of 149 pg/mL. “scOKT3-γ?IgM, C575S Monomers (from UniProt P01871 218-435) (Fc fusion)” gave an IL-2 production of 73 pg/mL, an INF-γ-production of 189 pg/mL and a T-cell proliferation, immobilized Ak [cpm × 10^3] of 3700 cpm. For the same substance, the T-cell proliferation, soluble Ak [cpm × 10^3] was 2400 cpm and the TNF-α-production was 169 pg/mL. With monoclonal OKT3 antibody the IL-2 production was 467 pg/mL, the INF-γ-production was 1380 pg/mL and the T-cell proliferation, immobilized Ak [cpm × 10^3] was 12500 cpm. The T-cell proliferation, soluble Ak [cpm × 10^3] was 9500 cpm and the TNF-α-production was 960 pg/mL.

These substances were tested against human CD3 (TCR/CD3 complex) on T-cells (human) (UniProt P07766) (assay: FACS staining of CD3+ Jurkat cells).
With monoclonal OKT3 antibody the percent of Jurkat cells with positive staining was > 90%.

Each substance was assayed against human CD3 (TCR/CD3 complex) on T-cells (human) (UniProt P07766) (assay: FACS staining of CD3+ Jurkat cells with polymer fractions).
Work on scOKT3-γ?IgM monomers yielded a percent of Jurkat cells with positive staining of 80%. For scOKT3-γ?IgM pentamers, the percent of Jurkat cells with positive staining was > 90%.
